For one substance, Kd results are on record in US20040120947A1.

The assay concerns the target soluble His-tagged Apo-2L (UniProt P50591). In words: KinExA; column head 'Affinity (pM)'. Background: Kinetic exclusion samples the free partner from a solution-phase mixture.
Chain of UniProt P50591 (P50591 114-281 limits assumed): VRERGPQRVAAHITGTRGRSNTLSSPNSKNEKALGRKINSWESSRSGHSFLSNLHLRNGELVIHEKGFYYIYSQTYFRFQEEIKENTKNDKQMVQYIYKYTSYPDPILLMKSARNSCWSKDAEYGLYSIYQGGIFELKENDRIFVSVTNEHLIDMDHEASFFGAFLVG

DR5-IgG (Fc fusion) showed a dissociation constant (Kd) of 1 pM.

The Kd is the concentration at which binding is half-saturated.
